From article PMC11638003, “Plant phytochrome interactions decode light and temperature signals” (The Plant Cell, 2024)
No end group written: not given here.

Legend:
Details in all cases: both partners purified
[1] = target: T1, Arabidopsis thaliana phytochrome B residues 1 to 982, AtPhyB (1-982) (Arabidopsis thaliana, UniProt P14713 1-982, phycocyanobilin chromophore, covalently bound); experiment: FRET or BRET; association kinetics at 15 °C after a 0.5-s pulse of red light (658 nm, 69 mW cm^-2, optical shutter); 20 nM PIF-mScarlet-I variant with 500 to 2,000 nM AtPhyB PCM, or 30 nM P6A-mScarlet-I with 750 to 2,500 nM AtPhyB (1-982); 50 mM Tris/HCl pH 8.0, 20 mM NaCl; pseudo-first-order, linear fit of koFR against the AtPhyB concentration; kaFR corrected for the Pfr fraction; Kd calculated from kdFR and kaFR …
T1 construct: the oligomeric state is not measured directly here; also called AtPhyB982; source: E. coli LOBSTR, purified (Co2+-NTA IMAC, anion exchange); plasmid also encodes Synechocystis sp. heme oxygenase 1 and PcyA
T1 sequence (looked up): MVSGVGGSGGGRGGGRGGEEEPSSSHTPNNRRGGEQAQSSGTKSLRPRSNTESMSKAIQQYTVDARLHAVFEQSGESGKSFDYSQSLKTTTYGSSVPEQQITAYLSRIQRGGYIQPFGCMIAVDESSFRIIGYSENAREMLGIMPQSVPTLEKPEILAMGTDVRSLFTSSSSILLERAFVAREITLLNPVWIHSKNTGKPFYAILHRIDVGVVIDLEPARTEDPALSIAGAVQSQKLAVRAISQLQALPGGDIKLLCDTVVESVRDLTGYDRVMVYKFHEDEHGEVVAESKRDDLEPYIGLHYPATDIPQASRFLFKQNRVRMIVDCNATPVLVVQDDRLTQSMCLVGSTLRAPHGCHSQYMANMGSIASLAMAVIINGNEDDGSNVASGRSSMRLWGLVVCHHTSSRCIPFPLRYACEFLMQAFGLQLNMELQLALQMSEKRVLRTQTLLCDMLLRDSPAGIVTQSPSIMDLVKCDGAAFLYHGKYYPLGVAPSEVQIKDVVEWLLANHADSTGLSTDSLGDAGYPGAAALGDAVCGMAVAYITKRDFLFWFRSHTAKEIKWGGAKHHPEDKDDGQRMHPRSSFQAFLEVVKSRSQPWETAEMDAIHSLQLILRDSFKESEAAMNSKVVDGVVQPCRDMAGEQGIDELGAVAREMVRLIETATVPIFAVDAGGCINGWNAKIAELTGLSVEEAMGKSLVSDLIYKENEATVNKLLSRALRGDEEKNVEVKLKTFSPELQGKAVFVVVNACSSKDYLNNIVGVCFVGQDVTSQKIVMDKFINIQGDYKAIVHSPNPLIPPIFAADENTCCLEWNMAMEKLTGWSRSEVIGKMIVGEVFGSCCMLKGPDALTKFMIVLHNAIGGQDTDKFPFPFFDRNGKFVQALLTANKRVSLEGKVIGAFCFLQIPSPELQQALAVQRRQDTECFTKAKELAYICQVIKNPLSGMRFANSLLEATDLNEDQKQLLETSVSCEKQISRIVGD

[2] = target: T1, Arabidopsis thaliana phytochrome B …; experiment: as above; remark: listed apart in the source
[3] = target: T2, Arabidopsis thaliana phytochrome B, N-terminal fragment encompassing the N-terminal extension (NTE) and the … (Arabidopsis thaliana, UniProt P14713 1-651, phycocyanobilin chromophore, covalently bound); experiment: FRET or BRET; as a5 (association and dissociation kinetics after a red-light pulse) at several temperatures up to 30 °C; values told for 30 °C or for 30 °C against 15 °C
T2 construct: Phytochrome B, Arabidopsis thaliana, GenBank CAA35222.1; N-terminal fragment with the NTE and the PCM (nPAS-GAF-PHY), lacking PAS1, PAS2 and the HKRD; source: E. coli LOBSTR, purified (Co2+-NTA IMAC, anion exchange); plasmid also encodes Synechocystis sp. heme oxygenase 1 and PcyA
T2 sequence (looked up): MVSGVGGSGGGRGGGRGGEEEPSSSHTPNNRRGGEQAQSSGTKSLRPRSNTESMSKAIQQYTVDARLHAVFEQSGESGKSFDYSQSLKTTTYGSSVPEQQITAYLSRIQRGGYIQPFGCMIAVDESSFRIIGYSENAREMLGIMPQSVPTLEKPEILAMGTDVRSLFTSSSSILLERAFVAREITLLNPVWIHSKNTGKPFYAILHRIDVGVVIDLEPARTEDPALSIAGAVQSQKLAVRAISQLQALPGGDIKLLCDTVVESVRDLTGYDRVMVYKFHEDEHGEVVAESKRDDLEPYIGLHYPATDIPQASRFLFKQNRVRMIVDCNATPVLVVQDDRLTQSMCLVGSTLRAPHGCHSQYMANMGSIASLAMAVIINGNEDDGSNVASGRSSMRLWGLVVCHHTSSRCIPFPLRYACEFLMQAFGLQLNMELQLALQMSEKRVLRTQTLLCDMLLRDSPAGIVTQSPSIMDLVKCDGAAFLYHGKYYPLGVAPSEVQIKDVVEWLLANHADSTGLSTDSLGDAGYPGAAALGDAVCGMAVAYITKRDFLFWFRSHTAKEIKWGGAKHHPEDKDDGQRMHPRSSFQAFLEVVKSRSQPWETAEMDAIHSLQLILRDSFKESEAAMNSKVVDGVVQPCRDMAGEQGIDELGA

[4] = target: T2, Arabidopsis thaliana phytochrome B, …; experiment: FRET or BRET; equilibrium titration: 20 nM P6A-mScarlet-I with 0 to 2,000 nM AtPhyB PCM at 15 °C after red light (658 nm); 50 mM Tris/HCl pH 8.0, 20 mM NaCl, 100 μg/mL BSA; single-site binding isotherm
[5] = target: T2, Arabidopsis thaliana phytochrome B, …; experiment: FRET or BRET; association kinetics at 15 °C after a 0.5-s pulse of red light (658 nm, 69 mW cm^-2, optical shutter); 20 nM PIF-mScarlet-I variant with 500 to 2,000 nM AtPhyB PCM, or 30 nM P6A-mScarlet-I with 750 to 2,500 nM AtPhyB (1-982); 50 mM Tris/HCl pH 8.0, 20 mM NaCl; pseudo-first-order, linear fit of koFR against the AtPhyB concentration; kaFR corrected for the Pfr fraction; Kd calculated from kdFR and kaFR …

B1: P6A-mScarlet-I (Arabidopsis PIF6 residues 14 to 53, APB.A portion, fused to mScarlet-I) (domain or fragment, Arabidopsis thaliana, UniProt Q8L5W7 14-53, looked up)
chain: DQEYMELVFENGQILAKGQRSNVSLHNQRTKSIMDLYEAE-{mScarlet‑I}
notes: mScarlet-I: GenBank APD76536; source: E. coli LOBSTR, purified (IMAC, SENP2 cleavage, second IMAC, optionally anion exchange); not shown: His6-SUMO, N-terminal, cleaved; mScarlet-I, C-terminal, kept
[1]
  Kd: 1050 ± 240 nM
  koff: 0.095 s⁻¹
  kon: 90000 M⁻¹ s⁻¹
[2]
  Kd: 1400 nM
[3]
  Kd: ~900 nM
[4]
  Kd: 130 ± 80 nM
[5]
  Kd: 183 ± 48 nM
  koff: 0.11 s⁻¹
  kon: 610000 M⁻¹ s⁻¹
